The text below walks through data of article PMC2185549.

A value given as a limit tells only on which side of the number the result lay.

In assay [1] the target is Sec61 complex of Th50-PK-RM (thermolysin 50 μg/ml, on ice) (canine (endogenous in canine pancreas microsomes)) (UniProt P38377). Nature of the assay: radioligand binding.
Assay [2] has as its target Sec61 complex of C1-PK-RM (chymotrypsin 1 μg/ml) (canine (endogenous in canine pancreas microsomes)) (UniProt P38377). Kind of assay: radioligand binding.
For assay [3], the target named is Sec61 complex of C5-PK-RM (chymotrypsin 5 μg/ml) (canine (endogenous in canine pancreas microsomes)) (UniProt P38377). Kind of assay: radioligand binding.
Assay [4] concerns the target Sec61 complex of C30-PK-RM (chymotrypsin 30 μg/ml) (canine (endogenous in canine pancreas microsomes)) (UniProt P38377). Kind of assay: radioligand binding.
Assay [5] deals with Sec61 complex of T3-PK-RM (trypsin 3 μg/ml) (canine (endogenous in canine pancreas microsomes)) (UniProt P38377). Nature of the assay: radioligand binding.
The target in assay [6] is Sec61 complex of C30-PK-RM (chymotrypsin 30 μg/ml) (canine (endogenous in canine pancreas microsomes)) (UniProt P38377). Nature of the assay: SEC.
The target of assay [7] is Sec61 complex of C5-PK-RM (chymotrypsin 5 μg/ml) (canine (endogenous in canine pancreas microsomes)) (UniProt P38377). Kind of assay: SEC. On the technique in general: Size exclusion chromatography separates by hydrodynamic size, large species first.
Assay [8] addresses Sec61 complex of T10-PK-RM (trypsin 10 μg/ml) (canine (endogenous in canine pancreas microsomes)) (UniProt P38377). Nature of the assay: SEC.

With “canine ribosomes (nontranslating 80S ribosomes) (complex)”, the fold fewer ribosome binding sites than Th2-PK-RM in assay [1] is 3 fold. Also, the fold lower affinity than the sites of undigested PK-RM in assay [2], in assay [3] and in assay [4] was < 2 fold each time. This substance also yielded a fold reduction of ribosome binding against undigested PK-RM in assay [3] of 3 fold. The fold defect in ribosome binding against undigested PK-RM in assay [4] was > 10 fold. This substance registered a percent of the high affinity ribosome binding sites of intact PK-RM in assay [5] of 5%.

On to “ribosome-nascent chain complex bearing ffLuc77”, for which the fold reduction of RNC binding relative to intact microsomes in assay [6] is 3.5 fold.

Consider “ribosome-nascent chain complex bearing pPL86 (from UniProt P01239 1-86)”, for which the fold decrease in RNC binding against undigested PK-RM in assay [7] is 2 fold. Also, in assay [6], the fold less RNCs bound than undigested PK-RM is 2.7 fold and the percent of the bound RNCs insensitive to high salt extraction was determined as 80%. In addition, the fold less RNCs bound than undigested PK-RM in assay [8] was found to be 5 fold.
